Source: patent US20110110856A1 (SIGNALOMICS, published 2011)
Substitutions are numbered along the chain they refer to. In names and notes the source's numbering stands.

T1: N-terminal domain of CEA (Homo sapiens (Human), UniProt P06731 35-144)
T1 construct: Target of the yeast two-hybrid screens; synthetic gene, codon-optimised for S. cerevisiae, cloned into a yeast TH vector; The fusion partner of the vector is not described; also called N-CEA; CEACAM5
T1 sequence: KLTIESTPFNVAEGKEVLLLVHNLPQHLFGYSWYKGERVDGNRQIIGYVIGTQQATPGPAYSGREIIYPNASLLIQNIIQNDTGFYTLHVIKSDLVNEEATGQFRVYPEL

B1: DraE T88M Q34L N84S (ligand)
chain: GFTPSGTTGTTKLTVTEECQVRVGDLTVAKTRGLLTDAAPIGPVTVQALGCDARQVALKADTDNFEQGKFFLISDNKRDKLYVSIRPMDNSAWTTDNGVFYKNDVGSWGGIIGIYVDGQQTNTPPGNYTLTLTGGYWAK
B2: combination mutant F100I T123I (on DraE T88M N77K) (ligand)
chain: B1 chain with L34Q, S84N, F100I, T123I
B3: DraE T88M G118S I85L (ligand)
chain: B1 chain with L34Q, S84N, I85L, G118S
B4: combined mutant F100S T11I D37G (on DraE T88M N77K) (ligand)
chain: B1 chain with T11I, L34Q, D37G, S84N, F100S
notes: also called F1005 T11I D37G
B5: combined mutant T95E T123I (on DraE T88M N77K) (ligand)
chain: B1 chain with L34Q, S84N, T95E, T123I
notes: also called T95E T1231
B6: DraE T88M (N77K) I111H (ligand)
chain: B1 chain with L34Q, S84N, I111H

Each binder was assayed against T1, N-terminal domain of CEA (assay: yeast two-hybrid, FDG rescreening).

Does B1 bind?
Result: binds

Does B2 bind?
Result: binds

Does B3 bind?
Result: binds

Does B4 bind?
Result: binds

Does B5 bind?
Result: binds

These binders were tested against T1, N-terminal domain of CEA (assay: yeast two-hybrid screen against N-CEA).

Does B6 bind?
Result: binds
